Results on 1 molecule are retold here after CN115960240A (CHINESE ACADEMY OF MEDICAL SCIENCES HEMATOLOGIC DISEASE …, dated 2023).

Test [1] addresses T1, 人CD3 (human, UniProt P07766 23-207).
T1 construct: whole, on cells; also called Jurkat细胞表面CD3蛋白
The test can be described thus: FACS titration (400 nM to 0.025 nM) on Jurkat cells, mean fluorescence, fitted in GraphPad Prism 7.

For test [2], the target named is T2, 人BCMA (B细胞成熟抗原) (human, UniProt Q02223 1-184).
T2 construct: whole, on cells; Endogenous BCMA on H929 cells; also called B-cell maturation antigen; H929细胞表面BCMA蛋白
T2 sequence (looked up): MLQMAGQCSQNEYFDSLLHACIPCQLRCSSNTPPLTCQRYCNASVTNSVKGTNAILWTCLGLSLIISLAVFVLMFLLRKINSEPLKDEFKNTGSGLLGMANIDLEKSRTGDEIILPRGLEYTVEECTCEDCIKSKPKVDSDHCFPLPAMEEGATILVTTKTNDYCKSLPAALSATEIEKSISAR
The test can be described thus: FACS titration (400 nM to 0.025 nM) on H929 cells, mean fluorescence, fitted in GraphPad Prism 7.

T1 sequence (P07766 23-207): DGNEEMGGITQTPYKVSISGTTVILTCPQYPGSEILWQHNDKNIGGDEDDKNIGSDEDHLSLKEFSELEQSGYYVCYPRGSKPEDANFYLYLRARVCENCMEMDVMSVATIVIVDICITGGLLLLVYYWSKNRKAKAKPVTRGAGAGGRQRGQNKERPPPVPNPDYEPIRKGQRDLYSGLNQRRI

B1: 四价双特异性抗体Tandab(CD3/BCMA) (bispecific antibody)
chain: DADIELTQSPAIMSASPGEKVTMTCSASSSVSYMNWYQQKSGTSPKRWIYDTSKLASGVPARFSGSGSGTSYSLTISGMEAEDAATYYCQQWSSNPFTFGCGTKLELKRGGGGSQVQLQQSGAEVVRPGTSVKVSCKASGYAFTNYLIEWVKQRPGQGPEWIGVITPGRGDTKYNAKFAGKATLTADKSSSTAYMQLSSLTFDDSAVYFCARGTTAWFPYWGQGTLVTVSAGGGGSGGGGSGGGGSDIVLTQSPASLTVSLGQRATISCRASKSVSTSGYSYMHWYQQKPRQPPKLLIYLASNLESGVPARFSGSGSGTDFTLNIHPVEEEDAATYYCQHSRDLPYTFGGGTKLEIKRAGGGGSQVQLQQSGAELARPGASVKMSCKASGYTFTRYTMHWVKQRPGQCLEWIGYINPSRGYTNYNQKFKDKATLTTDKSSSTAYMELTRLTSEDSAVYYCARYYDDHYSLDYWGQGTTVTVSSHHHHHH
notes: Tetravalent tandem diabody made from anti-BCMA mAb 69G8 and anti-CD3 mAb HIT3a, expressed in ExpiCHO-S cells and purified on a nickel column; detected with an anti-His secondary antibody, so it carries a His tag
For the molecule B1, the Kd in test [1] and in test [2] was 1.96 nM throughout.

By Kd is commonly meant the constant that tells how readily two partners part at equilibrium. The low end stands for higher affinity, the high end for lower affinity.
